According to doi:10.1101/2025.01.21.634112:

Legend:
[1] = biological target: Monodelphis domestica von Willebrand Factor (VWF) (Monodelphis domestica)
[2] = biological target: human von Willebrand Factor (VWF) (human) (UniProt P04275)

Substance: botrocetin from Bothrops jararaca (complex)
- reduction in the overall extent of platelet adhesion to collagen under flow (60 dyn/cm^2, 10 min) in opossum PRP with 4 ug/mL botrocetin, compared to the negative control [1]: 39%
- reduction in the overall extent of platelet adhesion to collagen under flow (60 dyn/cm^2, 10 min) in human PRP with 4 ug/mL botrocetin, compared to the negative control [2]: 66%
